The values below are quoted from earlier work in patent US20060234299A1, “Protein scaffolds and uses thereof” (Avidia Research Institute, priority 2004, published 2006).

For this data set the following is noted: commercial drugs.
For Rituxan: CD20 Antibody, the “Human T½” value was 78 h.
For Remicade: TNFa Antibody, the “Human T½” value was 216 h.
With Enbrel, the “Human T½” value is 103 h.
